According to patent US7842293B2, “Compositions and methods using anti-CS1 antibodies to treat multiple myeloma” (Facet Biotech Corporation, priority 2006, dated 2010):

B1: HuLuc63: humanized recombinant monoclonal IgG1 antibody directed to human CS1; heavy chain variable region SEQ ID NO: 5, light chain variable region SEQ ID NO: 6 (antibody, listed as Homo sapiens, V domains shown)
VH: EVQLVESGGGLVQPGGSLRLSCAASGFDFSRYWMSWVRQAPGKGLEWIGEINPDSSTINYAPSLKDKFIISRDNAKNSLYLQMNSLRAEDTAVYYCARPDGNYWYFDVWGQGTLVTVSS
VL: DIQMTQSPSSLSASVGDRVTITCKASQDVGIAVAWYQQKPGKVPKLLIYWASTRHTGVPDRFSGSGSGTDFTLTISSLQPEDVATYYCQQYSSYPYTFGQGTKVEIK

Tests used:
L363 cells = experiment: In vivo mouse multiple myeloma xenograft model, L363 tumors; conditions: L363 tumor-bearing mice, HuLuc63 10 mg/kg twice weekly for three weeks
Protocol: (§1) Six- to eight-week old female IcrTac:ICR-Prkdcscid mice obtained from Taconic Farms (Germantown, N.Y.) were inoculated with 1×10^7 OPM2 or L363 cells (German Collection of Microorganisms and Cell Cultures, Braunschweig, Germany) into the lower right flank. Caliper measurements were performed twice weekly to calculate tumor volume using the following formula: L×W×H/2, where L (length) is the longest side of the tumor in the plane of the animal's back, W (width) is the longest measurement perpendicular to the length and in the same plane and H (height) is taken at the highest point perpendicular to the back of the animal. When tumors reached an average size of about 100 mm^3, animals were randomized into 3 groups of 8-10 mice each and were treated with 1 or 10 mg/kg of HuLuc63 or isotype control antibody administered intraperitoneally twice a week for a maximum of 6 doses.
(§2) Tumor growth was monitored for a period of 1-2 months. Animal work was carried out under NIH guidelines (“Guide for the Care and Use of Laboratory Animals”) using protocols approved by IACUC at PDL BioPharma.
(§3) CS1 protein expression was examined on the L363 multiple myeloma cell line. […] The combination of HuLuc63 with Thal was tested for anti-myeloma activity in vivo. L363 tumor-bearing mice were treated with HuLuc63, or isotype control antibody twice weekly for three weeks at 10 mg/kg. Thal was given 5 days a week at 50 mg/kg for a maximum of 15 doses to mice receiving either isotype control antibody or HuLuc63.
L363 tumor-bearing mice were treated with HuLuc63, or isotype control antibody twice weekly for three weeks at 10 mg/kg. Thal was given 5 days a week at 50 mg/kg for a maximum of 15 doses and Dex was given twice a week at 10 mg/kg for a maximum of 6 doses to mice receiving either isotype control antibody or HuLuc63.
To determine if an anti-angiogenic drug can enhance the antitumor effects of HuLuc63, a combination of HuLuc63 with Bevacizumab was tested for anti-myeloma activity in vivo, as described above. L363 tumor-bearing mice were treated with HuLuc63, or isotype control antibody twice weekly for three weeks at 10 mg/kg. Bevacizumab was given twice a week at 0.5 mg/kg for a maximum of 6 doses to mice receiving either isotype control antibody or HuLuc63.

CS1 [1] = experiment: CS1 protein expression on L363 multiple myeloma cell line (flow cytometry); format: cell-based
Protocol: The effect of HuLuc63 and Thal treatment on the expression of CS1 in MM cell lines and mouse xenograft tumors was examined by flow cytometry and immunohistochemistry respectively, as described above.
as §3

myeloma tumor = conditions: myeloma mouse tumor model; from U.S. Patent Publication No. 2005/0025763; cited from earlier work
myeloma cells = conditions: from U.S. Patent Publication No. 2005/0025763; cited from earlier work
OPM2 cells = experiment: In vivo mouse multiple myeloma xenograft model, OPM2 tumors; conditions: OPM2 tumor-bearing mice; HuLuc63 1 mg/kg (sub-optimal) twice weekly for three weeks; Dex 10 mg/kg twice a week; i.p.; FIG. 1
Protocol: as §1
Dex was administered intraperitoneally at a dose of 10 mg/kg twice a week for a maximum of 6 doses.
as §2
CS1 protein expression was examined on the OPM2 multiple myeloma cell line. […] The combination of HuLuc63 with Dex was tested for anti-myeloma activity in vivo. […]

CS1 [2] = experiment: CS1 protein expression on OPM2 multiple myeloma cell line (flow cytometry); format: cell-based
Protocol: The effect of HuLuc63 and Dex treatment on the expression of CS1 in MM cell lines and mouse xenograft tumors was examined by flow cytometry and immunohistochemistry respectively.
CS1 protein expression was examined on the OPM2 multiple myeloma cell line. […] The combination of HuLuc63 with Dex was tested for anti-myeloma activity in vivo. OPM2 tumor-bearing mice were treated with sub-optimal doses of HuLuc63 (1 mg/kg), or isotype control antibody twice weekly for three weeks. Dex was given twice a week at 10 mg/kg to mice receiving either isotype control antibody or HuLuc63.

[3] = Bevacizumab 0.5 mg/kg twice a week, max 6 doses, FIG. 4
[4] = Thal 50 mg/kg 5 days a week, max 15 doses, FIG. 2

Row | Molecule | anti-tumor activity (L363 cells; [3]) | change in CS1 expression pre- or post-treatment (CS1 [1]) | anti-tumor activity (L363 cells; [4]) | reduction of tumor mass (myeloma tumor) | lysis of myeloma cells via ADCC (myeloma cells) | anti-tumor activity (OPM2 cells) | anti-tumor activity (L363 cells; Thal 50 mg/kg 5 days a week, Dex 10 mg/kg twice a week, FIG. 3) | change in CS1 expression pre- or post-treatment (CS1 [2])
1 | Bevacizumab: monoclonal antibody that targets the endothelial growth factor VEGF [reference compound] | did not exhibit significant anti-tumor activity |  |  |  |  |  |  | 
2 | O=C1CCC(N2C(=O)c3ccccc3C2=O)C(=O)N1 (centres unmarked) [Thal, Thalidomide, reference compound] |  | No significant change in CS1 expression | Significant anti-tumor activity |  |  |  |  | 
3 | B1 | Significant anti-tumor activity | No significant change in CS1 expression | Significant anti-tumor activity | more than 50% | effectively mediates lysis of myeloma cells | significant anti-tumor activity | significant anti-tumor activity | No significant change in CS1 expression
